# According to the DeepSol protein solubility set:
# Experiment: soluble on expression in E. coli; label from the status in PepcDB or PDB records
row,Sequence,soluble on expression in E. coli
1,MGSDKIHHHHHHMETISQEKAIEAMPLEGAERTRFWRDPRFKGMECLSATFITHEFAPHAHDTFSIGAIEAGSQISTIKGERSQTGPGDLYLINPDEIHDGHPGHEGYRYRMVYPPTDLLVEILEDVTGRSFKGTPSFSRLLLTDRELALGFHRAHRALEGKVGTLEADESMFGFLARLFERHGNAIIVPLQTRESSAVHRARDYLVENYTHDIGLEELAKLAGLSRAHLIRAFRKEFHITPHAFLTDKRVREAKALLRRGWSAADTAYHCGFADQAHFSRHFKARTGVTPGAYRSA,not soluble
2,MPTPLTHWSRWMQTASRFVDEYPNFSVLPPPPLRAPPPHSKISDRRSV,not soluble
3,MGNTATEFDGPYVITPISGQSTAYWICDNRLKTTSIEKLQVNRPEHCGDLPETKLSSEIKQIMPDTYLGIKKVVALSDVHGQYDVLLTLLKKQKIIDSDGNWAFGEGHMVMTGDIFDRGHQVNEVLWFMYQLDQQARDAGGMVHLLMGNHEQMVLGGDLRYVHQRYDIATTLINRPYNKLYSADTEIGQWLRSKNTIIKINDVLYMHGGISSEWISRELTLDKANALYRANVDASKKSLKADDLLNFLFFGNGPTWYRGYFSETFTEAELDTILQHFNVNHIVVGHTSQERVLGLFHNKVIAVDSSIKVGKSGELLLLENNRLIRGLYDGTRETLQENSLNQ,soluble
4,MHSVPSTGFPQSEFSGPFWTGRGVACARPNRYVWTARPSDQSSRRMSTSFSRRLRRLQSQKETALCVGLDPVPARFPPSLQDGRLRTDAVRAFCTTIVEATAPYACAFKPNFAFFEALGPAGLTVLDQVVTTIPDDCLVLGDAKRGDIGHSARHYAASIYEELGLDACTVSPYLGRDSVMPFLEHEGTCTFVLARTSNDGAADLQEACTCDGTPLYRHVARRVQAWNADAPGGAGLVVGATAPAALQDLRSLCPSLPFLVPGVGAQGGDAAAVMDAAATDEGPVLVNSSRSILYASEGPNYANAAADAARALRDALNGGASSSRGAPSPPALEHHHHHH,soluble
5,MGSDKIHHHHHHMPTLPMPSFLSSYWESSFNLKQHIQEFLQLDAEILETKLEFGQQQMAELGHKDFDWEQATAFYRDKVGEVYLFELGAWHLASHDYIGDTLRLIADHAHGCVLDFGGGIGTHAIGAALCPHVEQVVYCDINPINFDFVKYRAEKLGLSEKIIFCVEIPPQKTFDTIMSFDVLEHLPDPSQQLLEFHQILADEGKMILNWHFFKGFNQEHPFHLDDPQAIDTFFKTIQSNCLEVFHPYHITARCYRKWN,not soluble
6,MKVAVLGAAGGIGQALALLLKTQLPSGSELSLYDIAPVTPGVAVDLSHIPTAVKIKGFSGEDATPALEGADVVLISAGVARKPGMDRSDLFNVNAGIVKNLVQQVAKTCPKACIGIITNPVNTTVAIAAEVLKKAGVYDKNKLFGVTTLDIICSNTFVAELKGKQPGEVEVPVIGGHSGVTILPLLSQVPGVSFTEQEVADLTKRIQNAGTEVVEAKAGGGSATLSMGQAAARFGLSLVRALQGEQGVVECAYVEGDGQYARFFSQPLLLGKNGVEERKSIGTLSAFEQNALEGMLDTLKKDIALGQEFVNK,soluble
7,MDPVRILRHLITGQSAIKRAFPPATLTVIEQAIAHSETLHGGEIVFAVEASLDLPLLLQNQIIRERAIDVFSLLRVWDTEHNNGVLIYLLMADHDVEIVADRGIHTKVDQTIWETACDTMKTTFRHGQFEQGVLAGIDLSTRVLQQFFPASTGKRKSELPDRPVVLLEHHHHHH,not soluble
8,MAHHHHHHMGGFSSKNMEYYNYASMKLLDRSKYINEEEEEDDYHYCKETDIRETIKKAREIKNCNYKESMDLYIKALKTLKKLKENNSRIYRNVLEFEIRPQEIANSMSLKNSLEKNMYMKKEGDKDYTGGPSNDNQTISINNKIASLYNEIADLCCIHDFIEKSLFYYDKACSYNPSKIDYIYKKGVLFQQMNDTERAINTFKIILSSEPNHIPTLFSLGNLYRYIDNHIALSYFEAILKIEPNNTEVLSLIASCYDNLGKLNEAISYQNKAVQIDPDNFNHKKFAQRLIEMKSHN,not soluble
9,MAHHHHHHMSRLMPHYSKGKTAFLCVDLQEAFSKRIENFANCVFVANRLARLHEVVPENTKYIVTEHYPKGLGRIVPEITLPKTAHLIEKTRFSCVVPQVEELLEDVDNAVVFGIEGHACILQTVADLLDMNKRVFLPKDGLGSQKKTDFKAAIKLMSSWGPNCEITTSESILLQMTKDAMDPNFKRISKLLKEEPPIPL,soluble
10,SGERDQSSDTDQERKGGKHPYSSHYSSDFGSSPQSSGPSSPVNTPPCASNREKNPKRHLSDHHVRHQTVRKVSPKAIPNKKGVRVGFRSQSLNREPLRKDPDIVTKRVLSARLLKITELQNEVSELQVKLAQLLKENKALKSLQYRQEKALSKFEDAENEISQLIHRHNGEITALKERLRKSQEKERMAEKRVKDTEGELFRTKFSLQKLKKISEARHLPERDDLAKKLVSAELKLDNTEKD,not soluble
11,PGSEFELGNKGNNILNSNESRLNVNENNILREKFENYARIVFQFNNSRQANGNFDIANEFISILSSANGTRNAQLLESWKILESMKSKDINIVEVGKQYLEQQFLQYTDNLYKKNMNEGLATNVNKIKSFIDTKLKKADKSWKISNLTVINGVPIWALIFYLLRAGLIKEALQVLVENKANIKKVEQSFLTYFKAYASSKDHGLPVEYSTKLHTEYNQHIKSSLDGDPYRLAVYKLIGRCDLSRKNIPAVTLSIEDWLWMHLMLIKEKDAENDPVYERYSLEDFQNIIISYGPSRFSNYYLQTLLLSGLYGLAIDYTYTFSEMDAVHLAIGLASLKLFKIDSSTRLTKKPKRDIRFANILANYTKSFRYSDPRVAVEYLVLITLNEGPTDVELCHEALRELVLETKEFTVLLGKIGRDGARIPGVIEERQPLLHVRDEKEFLHTITEQAARRADEDGRIYDSILLYQLAEEYDIVITLVNSLLSDTLSASDLDQPLVGPDDNSETNPVLLARRMASIYFDNAGISRQIHVKNKEICMLLLNISSIRELYFNKQWQETLSQMELLDLLPFSDELSARKKAQDFSNLDDNIVKNIPNLLIITLSCISNMIHILNESKYQSSTKGQQIDSLKNVARQCMIYAGMIQYRMPRETYSTLINIDVSL,soluble
12,MGSDKIHHHHHHEITDGVVRIGVLNDQTGVYAGLAGPGSVWAAKKAVQDFAPEKHGLKVEIVAADHQNKPDVGASIARRWFDVDKVDAIVDVPTSSVVLAVNQVAKEKNKVMIVTGGGTSDLTGKACTPNAIHWAYDTWALANGTGKAVVKSGGKSWFFVTADYAFGHSLERDTEAVVVKNGGKVLGKVRHPFPGNDFSSYLLQAQASKAQVVGLANAGGDTIGAVKQAAEFGVTAGGQKLAGLLVFSSDVQALGLKAAQGLLLSETWYWDMTDENRKFGKEFAAANNGKFPTMAQAGTYSAVIHYLKAVAAMKADGDGAAVVAKMKAMPTDDKLFGKGSIREDGRKIHPLYLFEVKKPSESKYAGDFYKLIATIPATEAFRPMEEGGCPLIGKKAS,not soluble
13,MSGAVLPAVLVVPKMESVVVPIAESTVINAKDTTPSTAADNDVSPSPSEPDTDAIKMFVGQIPRQWNETDCRRLFEKYGSVFSCNILRDKSTQASKGCCFVTFYHRKDAIEAQGALHNIKVIEGMHHPVQMKPADTENRNERKLFIGQLSKKHNEENLREIFAKFGHIEDCSVLRDQDGKSRGCAFVTFTNRSCAVVATKEMHHSQTMEGCSAPLVVKFADTQKDKDVKTKSMITGSGAGSPKGGAASLLQNLNPALLQQLGGGQNYQAVASLLSLINGQQGQQQQHQQQQNVLGILGTVLSALGKLTEGGDDASAKSSSEKPRHQALMTSPAPTATSSTSSSASHHHQQHQQQLSQQQQQQQHPQQQGLGNPLLGNPAMAAQNQFDAITMAQIAHQQQMLALQGFAVQQGAPSQQQQGLAGGMAGAKTTSPVAASLANHQQIALTPFAGGAAALDHFQAMQQYALLANLQATGGVGVQATTSAAQMVGNGDVKGPDGANLFIYHLPQDFGDSDLINTFAPFGGILSAKVFIDKVTNLSKCFGFVSYENAQSATNAISAMNGFQIGSKRLKVQLKVDRGNPYNR,not soluble
14,MGSDKIHHHHHHMRGTIMDDLNDLYYFVKVVEHGGFTQAGRALGVPKSTLSRRIAALEAQYDVRLLQRTTRHFTVTETGREFYDRCLGVLVEAEAAREVIERKHAEPQGIVSLSCPTALLEYRVSGLVARFMAIHPKVQVHLEATNRRVDLLSEGIDLALRVRFPPLEDSGLVMRVLGDSPQRLVAAPHLLGGRDLPTSPDELAGVPSVDWGPPRHHLWQLVGPQGVEAQLRHHPRFITDDMHALRDAALHGVGIAQLPCMVVEDDLRDGTLVDVLPGWVPKGGVIHAVFPSRRGLLPRVRLLIDFLAAHIQKD,not soluble
15,MGSDKIHHHHHHMVEIKKICCIGAGYVGGPTCSVIAHMCPEIRVTVVDVNEARINAWNSPTLPIYEPGLKEVVESCRGKNLFFSTNIDDAIREADLVFISVNTPTKTYGMGKGRAADLKYIEACARRIVQNSNGYKIVTEKSTVPVRAAESIRRIFDANTKPNLNLQVLSNPEFLAEGTAIKDLKNPDRVLIGGDETPEGQKAVRALCAVYEHWVPKEKILTTNTWSSELSKLAANAFLAQRISSINSISALCEATGADVEEVATAIGMDQRIGNKFLKASVGFGGSCFQKDVLNLVYLCEALNLPEVARYWQQVIDMNDYQRRRFASRIIDSLFNTVTDKKIAILGFAFKKDTGDTRESSSIYISKYLMDEGAHLHIYDPKVPREQIVVDLSHPGVSADDQVSRLVTISKDPYEACDGAHALVICTEWDMFKELDYERIHKKMLKPAFIFDGRRVLDGLHSELQTIGFQIETIGKKVSSKRIPYTPGEIPKFSLQDPPNKKPKV,not soluble
16,MSLSKILPVVTACLLATTMGASASSIPEKASVCSGCHGQDGMGQPNIAPMIAGLNANYLNTQIELFLSGERQNVVMQGMAKELSDPAVRKEVMNYFANLPSYEFTNPEQRGDQADIRNPYRKLIFQGDWDRNIPACATCHGASGMGVDKFPRLASQHADYLKTQLMAWKIGTRSGDPLNMMGTIAKNLTDEEIENLSYYFASLRYEGHHHHHH,not soluble
17,MGSDKIHHHHHHVSATISDLDRLLVAIAAIPTPWKEWPGGYPGRLDLALVDAVMSIRFRYGRERKDGSWTGARGAVLRYQAYSDHVAPAEKMKNLANQDPIALERILNRQKVHSGKTKACAIVEAAQRFLAIDVTEPAHLRPDDAEHRAQYTGVSGLGPVTWEYFTMLLSHDGVKADTWIRRFVERSVQRNVSSDEAGALIKEAANKLDVRETKLDYAVWNYASTTRLETMPKLS,not soluble
18,GPGSMPAAPLPGEVAKFCSPLYMHKRILRAAAPKPPTVFTAKDNSKTAFHVVTQRPGFATTPYTVSRWYLKEKVHSSNRNRLEGLYECVLCASCTGSCPQYWWNRELFLGPAVLLQSYRWLIEPLDRDFDSRVKMFEHGPLVNFCHNIFNCSITCPKFLNPGMASKEIKRLSSPATLRVGPPLEDAKVASKY,not soluble
19,MAFNGAMSVGAQISDAVILAHSPKSCTHIMYQTISSAGRRTLFERGALLPVSLAPNLESTDMGEAEMIFGGMEKLEEKILELKARQPRAIVVVSACPAGIIGDDIGRTRRFSEPGLPVVTLKTDGNLAGDYLQGMLMAYTSLARQVIRLEHHHHHH,not soluble
20,LSWKRCAGCGGKIADRFLLYAMDSYWHSRCLKCSSCQAQLGDIGTSSYTKSGMILCRNDYIRLFGNSGACSACGQSIPASELVMRAQGNVYHLKCFTCSTCRNRLVPGDRFHYINGSLFCEHDRPTALINGHLNSGGSGGSGGSGGDVMVVGEPTLMGGEFGDEDERLITRLENTQFDAANGIDDETRESGSIEF,soluble
